The text below walks through data of the Human Domainome abundance scans (Beltran et al. 2025).

First the molecules themselves.
B1: Nucleolar transcription factor 1, residues 408 to 469; numbered along this chain, P17480 (parent)
chain: KRPVSAMFIFSEEKRRQLQEERPELSESELTRLLARMWNDLSEKKKAKYKAREAALKAQSER

± gives the uncertainty stated by the source.

The data set covers variants of B1. Kind of data set: abundance fitness (aPCA) (normalised: wild type 0, dead -1); higher = more abundant; growth selection in yeast, the domain comes from the species named. The conditions noted are these: Homo sapiens.
Turning to KRPVSAMFIFSEEKRRQLQEERPELSESELTRLLARMWNDLSEKKKAKYKALEAALKAQSER, the abundance fitness is -0.114 ± 0.045.

Regarding KRPVSAMFIFSEEKRRQLQEERPELSESELTRLLARMWNDLSEKKKAKYKAEEAALKAQSER, the abundance fitness was -0.026 ± 0.073.

As for KRPVSAMFIFSEEKRRQLQEERPELSESELTRLLARMWNDLSEKKKAKYKATEAALKAQSER, the abundance fitness was -0.042 ± 0.079.

On to KRPVSAMFIFSEEKRRQLQEERPELSESELTRLLARMWNDLSEKKKAKYKANEAALKAQSER, for which the abundance fitness is -0.277 ± 0.11.

In the case of KRPVSAMFIFSEEKRRQLQEERPELSESELTRLLARMWNDLSEKKKAKYKAGEAALKAQSER, the abundance fitness is -0.193 ± 0.048.

In the case of KRPVSAMFIFSEEKRRQLQEERPELSESELTRLLARMWNDLSEKKKAKYKAFEAALKAQSER, the abundance fitness was -0.209 ± 0.1.

Turning to KRPVSAMFIFSEEKRRQLQEERPELSESELTRLLARMWNDLSEKKKAKYKAWEAALKAQSER, the abundance fitness is -0.234 ± 0.077.

Consider KRPVSAMFIFSEEKRRQLQEERPELSESELTRLLARMWNDLSEKKKAKYKAQEAALKAQSER, for which the abundance fitness came out at 0.002 ± 0.06.

As for KRPVSAMFIFSEEKRRQLQEERPELSESELTRLLARMWNDLSEKKKAKYKAYEAALKAQSER, the abundance fitness was -0.324 ± 0.11.

For the variant KRPVSAMFIFSEEKRRQLQEERPELSESELTRLLARMWNDLSEKKKAKYKAMEAALKAQSER, the abundance fitness is -0.092 ± 0.061.

Regarding KRPVSAMFIFSEEKRRQLQEERPELSESELTRLLARMWNDLSEKKKAKYKAPEAALKAQSER, the abundance fitness was -0.254 ± 0.064.

As for KRPVSAMFIFSEEKRRQLQEERPELSESELTRLLARMWNDLSEKKKAKYKAKEAALKAQSER, the abundance fitness came out at 0.014 ± 0.1.

Regarding KRPVSAMFIFSEEKRRQLQEERPELSESELTRLLARMWNDLSEKKKAKYKAIEAALKAQSER, the abundance fitness is -0.134 ± 0.11.

For the variant KRPVSAMFIFSEEKRRQLQEERPELSESELTRLLARMWNDLSEKKKAKYKAHEAALKAQSER, the abundance fitness was -0.1 ± 0.099.

In the case of KRPVSAMFIFSEEKRRQLQEERPELSESELTRLLARMWNDLSEKKKAKYKASEAALKAQSER, the abundance fitness was -0.137 ± 0.046.

Turning to KRPVSAMFIFSEEKRRQLQEERPELSESELTRLLARMWNDLSEKKKAKYKAVEAALKAQSER, the abundance fitness was -0.127 ± 0.058.

Regarding KRPVSAMFIFSEEKRRQLQEERPELSESELTRLLARMWNDLSEKKKAKYKACEAALKAQSER, the abundance fitness is -0.111 ± 0.078.

For the variant KRPVSAMFIFSEEKRRQLQEERPELSESELTRLLARMWNDLSEKKKAKYKAAEAALKAQSER, the abundance fitness is -0.17 ± 0.066.

In the case of KRPVSAMFIFSEEKRRQLQEERPELSESELTRLLARMWNDLSEKKKAKYKADEAALKAQSER, the abundance fitness was -0.106 ± 0.14.

For the variant KRPVSAMFIFSEEKRRQLQEERPELSESELTRLLARMWNDLSEKKKAKYKQREAALKAQSER, the abundance fitness is -0.053 ± 0.082.

KRPVSAMFIFSEEKRRQLQEERPELSESELTRLLARMWNDLSEKKKAKYKEREAALKAQSER: the abundance fitness is -0.033 ± 0.082.

Take KRPVSAMFIFSEEKRRQLQEERPELSESELTRLLARMWNDLSEKKKAKYKIREAALKAQSER: the abundance fitness is -0.148 ± 0.075.

KRPVSAMFIFSEEKRRQLQEERPELSESELTRLLARMWNDLSEKKKAKYKVREAALKAQSER: the abundance fitness is -0.059 ± 0.051.

On to KRPVSAMFIFSEEKRRQLQEERPELSESELTRLLARMWNDLSEKKKAKYKYREAALKAQSER, for which the abundance fitness was -0.097 ± 0.18.

As to KRPVSAMFIFSEEKRRQLQEERPELSESELTRLLARMWNDLSEKKKAKYKGREAALKAQSER, the abundance fitness was -0.101 ± 0.047.

Consider KRPVSAMFIFSEEKRRQLQEERPELSESELTRLLARMWNDLSEKKKAKYKPREAALKAQSER, for which the abundance fitness is -0.374 ± 0.094.

As to KRPVSAMFIFSEEKRRQLQEERPELSESELTRLLARMWNDLSEKKKAKYKCREAALKAQSER, the abundance fitness was -0.166 ± 0.094.

Take KRPVSAMFIFSEEKRRQLQEERPELSESELTRLLARMWNDLSEKKKAKYKHREAALKAQSER: the abundance fitness is -0.142 ± 0.12.

Turning to KRPVSAMFIFSEEKRRQLQEERPELSESELTRLLARMWNDLSEKKKAKYKWREAALKAQSER, the abundance fitness is -0.219 ± 0.082.

Regarding KRPVSAMFIFSEEKRRQLQEERPELSESELTRLLARMWNDLSEKKKAKYKSREAALKAQSER, the abundance fitness was -0.066 ± 0.052.

Take KRPVSAMFIFSEEKRRQLQEERPELSESELTRLLARMWNDLSEKKKAKYKDREAALKAQSER: the abundance fitness was -0.102 ± 0.06.

For KRPVSAMFIFSEEKRRQLQEERPELSESELTRLLARMWNDLSEKKKAKYKMREAALKAQSER, the abundance fitness is -0.059 ± 0.074.

In the case of KRPVSAMFIFSEEKRRQLQEERPELSESELTRLLARMWNDLSEKKKAKYKLREAALKAQSER, the abundance fitness is -0.042 ± 0.051.

As for KRPVSAMFIFSEEKRRQLQEERPELSESELTRLLARMWNDLSEKKKAKYKFREAALKAQSER, the abundance fitness is -0.079 ± 0.07.

KRPVSAMFIFSEEKRRQLQEERPELSESELTRLLARMWNDLSEKKKAKYKKREAALKAQSER: the abundance fitness was -0.052 ± 0.086.

KRPVSAMFIFSEEKRRQLQEERPELSESELTRLLARMWNDLSEKKKAKYKARKAALKAQSER: the abundance fitness was -0.366 ± 0.083.

KRPVSAMFIFSEEKRRQLQEERPELSESELTRLLARMWNDLSEKKKAKYKARLAALKAQSER: the abundance fitness is -0.183 ± 0.056.

For the variant KRPVSAMFIFSEEKRRQLQEERPELSESELTRLLARMWNDLSEKKKAKYKARSAALKAQSER, the abundance fitness is -0.13 ± 0.056.

On to KRPVSAMFIFSEEKRRQLQEERPELSESELTRLLARMWNDLSEKKKAKYKARIAALKAQSER, for which the abundance fitness is -0.356 ± 0.15.

On to KRPVSAMFIFSEEKRRQLQEERPELSESELTRLLARMWNDLSEKKKAKYKARGAALKAQSER, for which the abundance fitness was -0.142 ± 0.081.

Turning to KRPVSAMFIFSEEKRRQLQEERPELSESELTRLLARMWNDLSEKKKAKYKARCAALKAQSER, the abundance fitness was -0.086 ± 0.11.

Regarding KRPVSAMFIFSEEKRRQLQEERPELSESELTRLLARMWNDLSEKKKAKYKARAAALKAQSER, the abundance fitness is -0.056 ± 0.072.

Turning to KRPVSAMFIFSEEKRRQLQEERPELSESELTRLLARMWNDLSEKKKAKYKARDAALKAQSER, the abundance fitness was -0.123 ± 0.076.
